Reference: patent US20230021388A1 (VELOSBIO, published 2023)
Numbering of substitutions follows the chain as printed. Numbers in names are those of the source. Where “and” joins values, the source holds several entries; their conditions need not be identical. Equal values may be shown once.

B1: Ab1 Fab (Fab, V domains shown)
VH: QVQLQESGPGLVKPSQTLSLTCTVSGYAFTAYNIHWVRQAPGQGLEWMGSFDPYDGGSSYNQKFKDRLTISKDTSKNQVVLTMTNMDPVDTATYYCARGWYYFDYWGHGTLVTVSS
VL: DIVMTQTPLSLPVTPGEPASISCRASKSISKYLAWYQQKPGQAPRLLIYSGSTLQSGIPPRFSGSGYGTDFTLTINNIESEDAAYYFCQQHDESPYTFGEGTKVEIK
notes: Soluble Fab from an M13 phage vector in E. coli: VL + kappa constant region, VH + human CH1 + His and HA tags; also called WT; parental Fab
B2: Ab1 Fab variant H1 T32A (Fab, V domains shown)
VH: B1 VH with T30A
VL: B1 VL
notes: Fab
B3: H1 T32A Ab1 scFv (scFv)
scFv: QVQLQESGPGLVKPSQTLSLTCTVSGYAFAAYNIHWVRQAPGQGLEWMGSFDPYDGGSSYNQKFKDRLTISKDTSKNQVVLTMTNMDPVDTATYYCARGWYYFDYWGHGTLVTVSSGGGGSGGGGSGGGGSADIVMTQTPLSLPVTPGEPASISCRASKSISKYLAWYQQKPGQAPRLLIYSGSTLQSGIPPRFSGSGYGTDFTLTINNIESEDAAYYFCQQHDESPYTFGEGTKVEIKRDYKDDDDKGKPGSGKPGSGKPGSGKPGSYPYDVPDYAS
notes: VH - linker - VL with C-terminal FLAG and HA tags; also called scFv variant H1 T32A; Ab1.1
B4: Ab1 scFv (scFv)
scFv: B3 scFv with A30T
notes: the pelB leader is not part of the entry; also called parental Ab1 scFv; Ab1 parental construct
B5: H1 T32A/L2 T69R Ab1 scFv (scFv)
scFv: B3 scFv with T185R
notes: VH - linker - VL with C-terminal FLAG and HA tags; also called scFv variant H1 T32A+L2 T69R; Ab1.2

Assays:
[1] = target: T1, recombinant human ROR1 extracellular domain (human, UniProt Q01973 30-406); experiment: ELISA, soluble Fab on coated huROR1-ECD; WT control beside variant G27N (…, SEQ ID NO: 15)
T1 construct: biotinylated for the filter lifts; also called huROR1-ECD; human ROR1-ECD
Experimental: (§1) The previously described filter lift assay provides a visual, qualitative assessment of antigen binding (Example 1). In order to assess the ROR1 binding activity of Ab1 Fab in a more quantitative fashion, an ELISA assay was developed. A 96-well Costar-3366 plate was coated with 50 μL/well of 1 μg/mL human ROR1-ECD (ACROBiosystems, cat. #RO1-H522y) in PBS overnight at 4° C. The plate was rinsed once with PBS-T and blocked with 100 μL/well of 5% M-P for 1 h at 25° C. Fab samples were serially diluted 3-fold using 5% M-P and 50 μL/well was incubated for 1 h at 25° C. The plate was washed three times with PBS-T and 50 μL/well anti-human kappa, and HRP conjugate (Southern Biotech, cat. #2060-05) diluted 10,000-fold in 5% M-P was added for 1 h at 25° C. In certain assays (extended wash format), the plate was placed in large volumes (up to 1 L) of PBS-T and incubated, with mixing, for 2-5 h prior to the addition of anti-human kappa, HRP conjugate. The plate was washed three times with PBS-T, and developed with 50 μL/well 1-Step Ultra TMB-ELISA (Thermo Scientific, cat. #34028). The reaction was terminated by the addition of 2 N H2504 and the A450 was determined using a Spectramax plate reader.

human ROR1 on live cells [2] = target: T2, human ROR1 on live cells (human, UniProt Q01973 30-937); experiment: flow cytometry on live JeKo-1 cells, Fab detected with anti-HA-PE
T2 construct: ROR1-transfected MEC cells (~56,000 copies/cell) or JeKo-1 cells (~13,000 copies/cell); the cell line is named under assay; also called ROR1-transfected MEC cells; JeKo-1 cells
Experimental: (§2) ROR1 binding was quantitated using flow cytometry and 2.5E5 ROR1-transfected MEC cells or JeKo-1 cells for each concentration of Fab variant. The cells were placed in 50 μL of PBS with 2% FBS. Next, the cells were diluted with an equal volume of 2× stock of the test Fab variant and the cells and antibody were co-incubated on ice for 20 min. The cells were then washed 3 times with 300 μL of FACS buffer and were resuspended in 100 μL of a 70-fold dilution of anti-HA.11-PE conjugate, clone 16B12 (BioLegend, cat. #901517) and incubated on ice with reduced light for 20 min. Subsequently, the cells were washed 3 times with 300 μL of FACS buffer and fixed with 2% paraformaldehyde for 10 min at 25° C. The cells then were washed 2 times with 300 μL of FACS buffer and analyzed on a Miltenyi MACSQuant Analyzer.

[3] = target: T1, recombinant human ROR1 extracellular …; experiment: ELISA, soluble Fab on coated huROR1-ECD
[4] = target: T1, recombinant human ROR1 extracellular …; experiment: ELISA, soluble Fab on coated huROR1-ECD; remark: listed apart in the source
Experimental: as §1

[5] = target: T1, recombinant human ROR1 extracellular …; experiment: ELISA, soluble Fab on coated huROR1-ECD; remark: listed apart in the source
[6] = target: T1, recombinant human ROR1 extracellular …; experiment: ELISA with prolonged wash, soluble Fab on coated huROR1-ECD
Experimental: as §1
(§3) Subsequently, the libraries were screened by capture lift to identify the strongest binding variants. The identity of the variants was determined by DNA sequencing and the relative affinities were characterized using an ELISA (described in Example 2) modified to enable further discrimination between the highest affinity variants. Specifically, following the initial incubation with soluble Fab, the plates were washed for a prolonged time (>1 h) in large volumes of PBS-T. The plates were then developed as described in Example 2.

[7] = target: T1, recombinant human ROR1 extracellular …; experiment: ELISA with prolonged wash (>1 h in PBS-T): huROR1-ECD coated on the plate, soluble Fab titrated, anti-human kappa-HRP detection
Experimental: as §1, with “The plate was washed three times with PBS-T, and developed with 50 μL/well 1-Step Ultra TMB-ELISA (Thermo Scientific, cat. #34028).” left out
Subsequently, the libraries were screened by capture lift to identify the strongest binding variants. The identity of the variants was determined by DNA sequencing and the relative affinities were characterized using an ELISA (described in Example 2) modified to enable further discrimination between the highest affinity variants. […]

[8] = target: T1, recombinant human ROR1 extracellular …; experiment: ELISA with prolonged wash, soluble Fab on coated huROR1-ECD; remark: listed apart in the source
Experimental: as §1, §3

[9] = target: T1, recombinant human ROR1 extracellular …; experiment: as above; remark: listed apart in the source
Experimental: as §1, §3

human ROR1 on live cells [10] = target: T2, human ROR1 on live cells; experiment: flow cytometry on live ROR1-transfected MEC cells, Fab detected with anti-HA-PE
Experimental: as §2
Initially, three anti-ROR1 Fab variants, each differing from the parental antibody by a single amino acid, were characterized for binding to human ROR1 using live ROR1-transfected MEC cells. […] The binding profiles of the variants on live ROR1-transfected MEC cells were consistent with the binding profiles obtained using recombinant huROR1-ECD and an ELISA (see Example 3, FIG. 5).

[11] = target: T1, recombinant human ROR1 extracellular …; experiment: ELISA: huROR1-ECD coated on the plate, periplasmic scFv in serial dilution, anti-HA-HRP detection; x axis is Log [relative expression], no concentration unit
Experimental: scFv constructs were expressed and isolated from the periplasmic space using the same protocol that was used for Fabs (Example 2). In order to quantitate the relative levels of scFv expression of the three variants, a 96-well Costar-3366 plate was coated with 50 μl/well of 2 μg/mL anti-FLAG-unlabeled (Rockland, cat. #600-401-383) in PBS overnight at 4° C. The plate was washed three times with PBS containing 0.05% Tween 20 (PBS-T) and blocked with 100 μL of 5% M-P. The plate was washed once, then 50 μl/well of sample dilutions was added. Sample dilutions were performed with 5% M-P. The plates were incubated 1 h at 25° C., washed three times with PBS-T, and incubated with 50 μl/well of anti-HA HRP conjugate (Roche, cat. #12013819001), diluted 1,000-fold in 5% M-P for 1 h at 25° C. The plate was washed three times with PBS-T, and developed with 50 μl/well 1-Step Ultra TMB-ELISA (Thermo Scientific, Prod. #34028, Lot #SF2405221). The reaction was terminated by the addition of 2 N H2504 and the A450 was determined using a Spectramax plate reader.
Next, the binding of the isolated scFv variants to huROR1-ECD was assessed by ELISA as described in Example 2. A 96-well Costar-3366 plate was coated with 50 μl/well of 1 μg/mL human ROR-1 (AcroBiosystems, cat. #R01H522Y) in PBS overnight at 4° C. The plate was washed three times with PBS-T and blocked with 100 μL of 5% M-P. The plate was washed once, then 50 μl/well of 2-fold serial dilutions of sample was added. Sample dilutions were performed with 5% M-P. The plates were incubated 1 h at 25° C., washed three times with PBS-T, and incubated with 50 μl/well of anti-HA HRP conjugate (Roche, cat. #12013819001), diluted 1,000-fold in 5% M-P for 1 h at 25° C. […] The reaction was terminated by the addition of 2 N H₂SO₄ and the A450 was determined using a Spectramax plate reader. In order to compare the relative binding strength of the scFv variants, the expression levels as determined using the scFv ELISA described above were normalized to the Ab1 parental construct. […]

human ROR1 on live cells [12] = target: T2, human ROR1 on live cells; experiment: flow cytometry on live JeKo-1 cells, scFv detected with anti-HA-PE; x axis is Log [relative scFv expression], no concentration unit

T1 sequence (Q01973 30-406 limits assumed): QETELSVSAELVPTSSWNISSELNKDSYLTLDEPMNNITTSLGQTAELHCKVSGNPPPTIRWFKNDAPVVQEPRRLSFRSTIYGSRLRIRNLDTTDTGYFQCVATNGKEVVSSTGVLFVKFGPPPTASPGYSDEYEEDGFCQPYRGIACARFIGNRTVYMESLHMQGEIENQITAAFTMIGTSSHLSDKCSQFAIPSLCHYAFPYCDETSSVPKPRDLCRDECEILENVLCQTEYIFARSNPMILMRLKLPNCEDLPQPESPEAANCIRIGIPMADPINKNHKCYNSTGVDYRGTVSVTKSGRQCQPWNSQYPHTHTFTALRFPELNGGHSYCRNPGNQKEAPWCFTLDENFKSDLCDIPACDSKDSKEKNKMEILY
T2 sequence (Q01973 30-937 limits assumed): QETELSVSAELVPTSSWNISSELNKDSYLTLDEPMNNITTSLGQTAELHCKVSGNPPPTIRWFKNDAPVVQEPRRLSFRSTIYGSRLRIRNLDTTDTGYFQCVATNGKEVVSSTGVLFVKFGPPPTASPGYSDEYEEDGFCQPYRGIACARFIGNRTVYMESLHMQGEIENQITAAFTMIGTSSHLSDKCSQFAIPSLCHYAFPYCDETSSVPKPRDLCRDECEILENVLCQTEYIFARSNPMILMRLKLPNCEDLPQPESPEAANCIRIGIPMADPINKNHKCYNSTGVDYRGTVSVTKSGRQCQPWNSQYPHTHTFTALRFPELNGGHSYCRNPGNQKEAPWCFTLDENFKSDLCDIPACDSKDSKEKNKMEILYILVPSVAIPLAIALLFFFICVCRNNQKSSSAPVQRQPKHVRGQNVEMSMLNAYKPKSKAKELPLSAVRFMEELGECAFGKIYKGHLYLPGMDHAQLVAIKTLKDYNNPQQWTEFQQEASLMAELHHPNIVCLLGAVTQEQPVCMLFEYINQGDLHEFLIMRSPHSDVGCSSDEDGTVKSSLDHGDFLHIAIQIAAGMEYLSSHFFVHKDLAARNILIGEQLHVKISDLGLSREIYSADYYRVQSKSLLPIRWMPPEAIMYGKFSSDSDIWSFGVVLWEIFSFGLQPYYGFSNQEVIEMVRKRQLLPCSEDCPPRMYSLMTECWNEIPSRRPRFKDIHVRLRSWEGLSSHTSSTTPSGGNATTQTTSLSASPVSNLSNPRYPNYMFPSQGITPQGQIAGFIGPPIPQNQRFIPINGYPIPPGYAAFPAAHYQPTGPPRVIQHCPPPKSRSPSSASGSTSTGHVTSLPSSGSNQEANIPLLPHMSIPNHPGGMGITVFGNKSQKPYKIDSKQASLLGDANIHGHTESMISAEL

Binder	EC50 (read off the curve) (human ROR1 on live cells [2])	Kd [3]	binding result [11]	binding result (human ROR1 on live cells [12])	also measured
B1	~10 nM	3.2 nM and 6 nM			Kd [1]: 3.2 nM; Kd [4]: 7 nM; Kd [5]: 3 nM
B2	~2 nM	1.5 nM			Kd [6]: 3.6 nM and 1.6 nM and 2.7 nM; EC50 (read off the curve) [7]: ~3 nM; Kd [8]: 3 nM and 2.7 nM; Kd [9]: 3 nM; EC50 (read off the curve) (human ROR1 on live cells [10]): ~0.05 µg/mL; fold increase of binding against Ab1 [5]: ~4 fold
B3			binds	binds	
B4			binds	binds	
B5			binds	binds	
